These results are taken from PMC6499816 (2019).

Broadly, the Kd is a measure of binding affinity in units of concentration.

Sequences and labels used below:
B2: LC3C (recombinant, BLI) (natural protein)
chain: MPPPQKIPSVRPFKQRKSLAIRQEEVAGIRAKFPNKIPVVVERYPRETFLPPLDKTKFLVPQELTMTQFLSIIRSRMVLRATEAFYLLVNNKSLVSMSATMAEIYRDYKDEDGFVYMTYASQETFG

Read-outs that look alike come from different tables or passages of the source. Ends that are not written are not given here.

Assay in all cases: BLI
A general note: In BLI a coated tip is dipped into the sample, and binding shifts an interference pattern.

Experiment [1] concerns the target GABARAP (recombinant, BLI) (human, UniProt O95166 1-117).
The target of experiment [2] is T1, GABARAP-L2 (recombinant, BLI) (human, UniProt P60520 1-117).
T1 sequence (P60520 whole entry): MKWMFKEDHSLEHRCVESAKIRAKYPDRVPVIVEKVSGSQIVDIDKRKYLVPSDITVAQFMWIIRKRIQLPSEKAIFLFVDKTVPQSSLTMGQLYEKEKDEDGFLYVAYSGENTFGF
In the next experiment the target is -L1 (recombinant, BLI) (human, UniProt Q9H0R8 1-117).
Chain of -L1 (recombinant, BLI) (Q9H0R8 whole entry): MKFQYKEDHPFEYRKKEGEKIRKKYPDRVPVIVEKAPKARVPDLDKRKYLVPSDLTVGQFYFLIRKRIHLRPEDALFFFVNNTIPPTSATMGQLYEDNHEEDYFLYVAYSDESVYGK
Experiment [3] addresses B2.
Experiment [4] deals with T2, LC3B (recombinant, BLI) (human, UniProt Q9GZQ8 1-120).
Experiment [5] addresses T1, GABARAP-L2 (recombinant, BLI). This is another data set of the same source.
In experiment [6] the target is LC3B E62Q (recombinant, BLI) (human, UniProt Q9GZQ8 1-120, E62Q).
The target of experiment [7] is GABARAP K24Q/Y25H/Q59E/F60L (recombinant, BLI) (human, UniProt O95166 1-117, K24Q | Y25H | Q59E | F60L).
In experiment [8] the target is LC3B Q26K/H27Y/E62Q (recombinant, BLI) (human, UniProt Q9GZQ8 1-120, Q26K | H27Y | E62Q).
Experiment [9] concerns the target GABARAP L55V (recombinant, BLI) (human, UniProt O95166 1-117, L55V).
Experiment [10] addresses GABARAP K24Q/Y25H/R28K (recombinant, BLI) (human, UniProt O95166 1-117, K24Q | Y25H | R28K).
For experiment [11], the target named is GABARAP R28K (recombinant, BLI) (human, UniProt O95166 1-117, R28K).
Experiment [12] deals with GABARAP L63I (recombinant, BLI) (human, UniProt O95166 1-117, L63I).
The target in experiment [13] is B2.
Experiment [14] deals with T3, LC3A (recombinant, BLI) (human, UniProt Q9H492 1-121).
Experiment [15] concerns the target T2, LC3B (recombinant, BLI). This is another data set of the same source.
For experiment [16], the target named is GABARAP F62K (recombinant, BLI) (human, UniProt O95166 1-117, F62K).
The target in experiment [17] is T3, LC3A (recombinant, BLI). The source holds these as a separate data set.
The target of experiment [18] is LC3B Q26K/H27Y/K30R (recombinant, BLI) (human, UniProt Q9GZQ8 1-120, Q26K | H27Y | K30R).
Experiment [19] has as its target GABARAP Q59E (recombinant, BLI) (human, UniProt O95166 1-117, Q59E).
The target of experiment [20] is GABARAP Y25H (recombinant, BLI) (human, UniProt O95166 1-117, Y25H).
For experiment [21], the target named is GABARAP K24Q (recombinant, BLI) (human, UniProt O95166 1-117, K24Q).
The target in experiment [22] is PCM1 LIR peptide mutated at P1962 (X7) (BLI) (UniProt Q15154, biotin (position not given)).

For NISQKSDEEDFDKVEDLPLKLTIY (also: biotin, position not given here) [PCM1 V1956D LIR peptide], the Kd in experiment [1] stood at 7.7 µM.
NISQKSDEEDFVKVTDLPLKLTIY (also: biotin, position not given here) [PCM1 E1959T LIR peptide (BLI)]: the Kd worked out at 3.1 µM in experiment [1]; 19 µM in experiment [2]; 2.9 µM with -L1 (recombinant, BLI).
As to GGSSGNTHDDFVMIDFKPAFSKDD (also: biotin, position not given here) [ATG13 LIR peptide (biotinylated, BLI)], the equilibrium dissociation constant (Kd) with LC3C (recombinant, BLI) [3] is 0.48 µM; in the experiment with LC3B (recombinant, BLI) [4] it was 9.6 µM; in experiment [5], 3.1 µM; in experiment [6], 4.5 µM; in experiment [7], 3.3 µM; in experiment [8] it was 3.1 µM.
PDSIDAHTFDFETIPHPNIEQTIH (also: biotin, position not given here) [FIP200 LIR peptide (biotinylated, BLI)]: the Kd in [9] was 8.5 µM; in [10], 70.3 µM; in experiment [11] it was 12.5 µM; in [12] it was 3.8 µM.

B1: FYCO1 WT LIR peptide (peptide)
chain: TDYRPPDDAVFDIITDEELCQIQE
modifications: 24-mer limits inferred: 10 residues on each side of the core FDII (1280-1283), as in the arrays; exact peptide is in Supplementary Table 2. N- or C-terminal biotin if used in BLI, cellulose-bound if in the array
B1: the Kd in the experiment with LC3C (recombinant, BLI) [13] was found to be 3 µM; with LC3A (recombinant, BLI) [14], 0.78 µM; with LC3B (recombinant, BLI) [15], 1.1 µM; in [1], 1.7 µM; in experiment [2], 17.4 µM.
For the molecule NISQKSDEEDFVKIEDLPLKLTIY (also: biotin, position not given here) [PCM1 V1958I LIR peptide], the dissociation constant Kd was 6.9 µM with LC3C (recombinant, BLI) [13]; 1.5 µM in experiment [1]; 7.6 µM in experiment [2].
Take NISQKSDEEDFDIIEDLPLKLTIY (also: biotin, position not given here) [PCM1 FDII LIR peptide (BLI)]: the Kd in the experiment with LC3C (recombinant, BLI) [13] stood at 2.4 µM; with LC3A (recombinant, BLI) [14] it was 4.6 µM; with LC3B (recombinant, BLI) [15], 21.8 µM; in experiment [1] it was 1.4 µM; in [2], 17 µM; with -L1 (recombinant, BLI), 0.91 µM.
For the molecule TDYRPPDDAVFDIITDEELCQIQE, the equilibrium dissociation constant (Kd) with -L1 (recombinant, BLI) turned out to be 0.9 µM.
As for NISQKSDEEDFVIVEDLPLKLTIY (also: biotin, position not given here) [PCM1 K1957I LIR peptide (BLI)], the Kd was 0.38 µM with LC3C (recombinant, BLI) [13]; 3.9 µM in the experiment with LC3A (recombinant, BLI) [14]; 0.17 µM in experiment [1]; 1.19 µM in experiment [2]; 0.13 µM in the experiment with -L1 (recombinant, BLI).
Consider NISQKSDEEDFVKVEDLPLKLTIY (also: biotin, position not given here) [PCM1 LIR peptide (biotinylated, BLI)], for which the dissociation constant (Kd) in [6] is 160 µM; in experiment [16] it was 3.8 µM; in [11], 4.2 µM; in experiment [12] it was 2 µM.
In the case of SKDSSCDTDDFVMVPAQFPGDLVA (also: biotin, position not given here) [ULK1 LIR peptide (biotinylated, BLI)], the Kd with LC3C (recombinant, BLI) [3] was 2.5 µM; with LC3A (recombinant, BLI) [17], 5.9 µM; in experiment [5], 0.53 µM; in [18], 2.9 µM; in [19], 0.36 µM; in experiment [9] it was 0.13 µM. Also, the Kd was determined as 0.26 µM in experiment [20]; 3.2 µM in experiment [10]; 0.42 µM in experiment [21]; 5.6 µM in experiment [7]; 5.6 µM in [8]; 0.15 µM in experiment [16]. The Kd in experiment [11] came out at 0.39 µM.
For the molecule SDNCSGGDDDWTHLSSKEVDPSTG (also: biotin, position not given here) [p62 LIR peptide (biotinylated, BLI)], the Kd in the experiment with LC3C (recombinant, BLI) [3] amounted to 2.7 µM.
In turn, B2 showed a Kd in experiment [22] of 10.8 µM.
